In patent US20250034212A1, “PEPTIDE” (PEPTIDREAM INC., priority 2021, published 2025):
Starred links: 1 amine or outer side, 2 acyl side, 3 side chain; linkers in the order of their positions; H or OH if unused. Positions of bridges follow the written chain, without caps; N, C: chain ends. Non-standard residues stand in square brackets, D forms with d. Residues, ends and D or L forms follow the SMILES beside them. Groups on a side chain read outwards from the residue. No end group written: not given here. *: point of attachment. KCOmeglumine = N6-(methyl-((2S,3R,4R,5R)-2,3,4,5,6-pentahydroxyhexyl)carbamoyl)-L-lysine, CN(C[C@H](O)[C@@H](O)[C@H](O)[C@H](O)CO)C(=O)NCCCC[C@H](N[*:1])C(=O)[*:2]; KCOpipzaa = N6-(4-(carboxymethyl)piperazine-1-carbonyl)-L-lysine, O=C(NCCCC[C@H](N[*:1])C(=O)[*:2])N1CCN(CC(=O)[*:3])CC1; Meglumine = CN(C[C@H](O)[C@@H](O)[C@H](O)[C@H](O)CO)*; 1Nal = N[C@@H](Cc1cccc2ccccc12)C(=O)O; Gly(NCH2CH2Ph) = O=C(O)CNCCc1ccccc1; 4Pal = N[C@@H](Cc1ccncc1)C(=O)O; CO = O=C([*:1])[*:2]

Assays:
recombinant human TGF-β1 = target: T1, recombinant human TGF-β1 (Homo sapiens, UniProt P01137); assay: SBE reporter assay in SBE reporter-HEK293 cells, TGF-β1 stimulation; assay type: cell-based; conditions: TGF-β1 0.13 nM, 18 hours; for inhibition at 62 pM: peptide 0.062 nM; for inhibition at 0.000185 µM: peptide 0.185 nM; for inhibition at 0.00056 µM: peptide 0.56 nM; for inhibition at 0.0017 µM: peptide 1.7 nM; for inhibition at 0.005 µM: peptide 5.0 nM; for inhibition at 0.015 µM: peptide 15.0 nM
T1 construct: purchased R&D systems
T1 sequence (P01137 279-390 limits assumed): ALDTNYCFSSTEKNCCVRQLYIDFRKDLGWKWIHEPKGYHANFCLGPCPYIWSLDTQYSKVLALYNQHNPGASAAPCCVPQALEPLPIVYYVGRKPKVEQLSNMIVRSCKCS
From the text: The inhibitory activity of the peptide can be calculated without limitation while the maximum signal induced by TGF-β is set to 0% inhibition and no stimulation is set to 100% inhibition. When the peptide is used at an appropriate concentration, for example, at the optimal concentration, the inhibitory activity is not limited but the inhibition is 5% or more, 10% or more, 20% or more, 30% or more, 40% or more, 50% or more, 60% or more, 70% or more, 80% or more, or 90% or more.
In this Example, the TGF-β1 inhibitory activity of the peptide of the present invention consisting of the amino acid sequence set forth in SEQ ID NOs: 2-33 synthesized in Examples 1 to 5 and 7 was evaluated by an SBE reporter assay using the SBE reporter-HEK293 cell system (BP Bioscience) as follows.
SBE reporter-HEK293 cells were cultured in E-MEM (Wako) containing 10% FBS (Sigma). The cells were detached using Accutase (Innovative Cell Technologies), suspended in E-MEM containing 0.5% FBS, seeded onto a 96-well plate(s) at a concentration of 45,000 cells per well, and cultured overnight. The next day, the peptide was added and allowed to stand for 20 min, and recombinant human TGF-β1 (R&D systems) or recombinant human TGF-β2 (R&D systems) was then added at 0.13 nM and cultured for 18 hours.
Thereafter, luciferase assay ONE-Glo reagent was added to each well and the plate was shaken for 5 min. A SpectraMax Paradigm multimode microplate reader (Molecular Devices) was then used for signal detection. The obtained signals were analyzed by GraphPad Prism. The inhibitory activity of the peptide was calculated while the maximum signal induced by TGF-β was set to 0% inhibition and no stimulation was set to 100% inhibition.

[1] = target: T2, recombinant human TGF-β1 (R&D systems) (human, UniProt P01137 279-390); assay: cell-based or functional assay
T2 sequence (P01137 279-390 limits assumed): as above

[2] = target: T2, recombinant human TGF-β1 (R&D systems); assay: cell-based or functional assay; remark: listed apart in the source

Molecule: CC(C)[C@@H]1NC(=O)CN(CCc2ccccc2)C(=O)[C@H](CC(=O)O)NC(=O)[C@H](CC(=O)O)NC(=O)[C@H](Cc2ccncc2)NC(=O)[C@H](C(C)C)NC(=O)[C@H](CC(N)=O)NC(=O)[C@H](C(C)C)NC(=O)[C@H](C(C)C)NC(=O)[C@H](Cc2cccc3ccccc23)NC(=O)[C@H](Cc2ccccc2)NC(=O)CSC[C@@H](C(=O)NCC(N)=O)NC(=O)[C@H](CCC(=O)O)NC(=O)[C@H](Cc2c[nH]cn2)NC(=O)[C@H](Cc2ccc(O)cc2)NC(=O)[C@H](Cc2cccc3ccccc23)NC1=O [TGFb1_027] ({CH2CO}-F[1Nal]VVNV[4Pal]DD[Gly(NCH2CH2Ph)]V[1Nal]YHECG-NH2; thioether N-16)
- inhibition at 62 pM (recombinant human TGF-β1): 2.53%
- inhibition at 0.000185 µM (recombinant human TGF-β1): 9.14%
- inhibition at 0.00056 µM (recombinant human TGF-β1): 28.4%
- inhibition at 0.0017 µM (recombinant human TGF-β1): 59.4%
- inhibition at 0.005 µM (recombinant human TGF-β1): 84.9%
- inhibition at 0.015 µM (recombinant human TGF-β1): 95.5%

Molecule: CC(C)[C@@H]1NC(=O)CN(CCc2ccccc2)C(=O)[C@H](CC(=O)O)NC(=O)[C@H](CC(=O)O)NC(=O)[C@H](Cc2ccncc2)NC(=O)[C@H](C(C)C)NC(=O)[C@H](CC(N)=O)NC(=O)[C@H](CCCCNC(=O)N(C)C[C@H](O)[C@@H](O)[C@H](O)[C@H](O)CO)NC(=O)[C@H](C(C)C)NC(=O)[C@H](Cc2cccc3ccccc23)NC(=O)[C@H](Cc2ccccc2)NC(=O)CSC[C@@H](C(=O)NCC(N)=O)NC(=O)[C@H](CCC(=O)O)NC(=O)[C@H](Cc2c[nH]cn2)NC(=O)[C@H](Cc2ccc(O)cc2)NC(=O)[C@H](Cc2cccc3ccccc23)NC1=O [TGFb1_028] ({CH2CO}-F[1Nal]VK([CO-Meglumine])NV[4Pal]DD[Gly(NCH2CH2Ph)]V[1Nal]YHECG-NH2; thioether N-16)
- inhibition at 62 pM (recombinant human TGF-β1): 0.94%
- inhibition at 0.000185 µM (recombinant human TGF-β1): 6.17%
- inhibition at 0.00056 µM (recombinant human TGF-β1): 20.4%
- inhibition at 0.0017 µM (recombinant human TGF-β1): 47.6%
- inhibition at 0.005 µM (recombinant human TGF-β1): 73.9%
- inhibition at 0.015 µM (recombinant human TGF-β1): 91.7%

Molecule: CC(C)[C@@H]1NC(=O)CN(CCc2ccccc2)C(=O)[C@H](CCC(=O)O)NC(=O)[C@H](CC(=O)O)NC(=O)[C@H](Cc2ccncc2)NC(=O)[C@H](C(C)C)NC(=O)[C@H](CC(N)=O)NC(=O)[C@H](CCCCNC(=O)N(C)C[C@H](O)[C@@H](O)[C@H](O)[C@H](O)CO)NC(=O)[C@H](C(C)C)NC(=O)[C@H](Cc2cccc3ccccc23)NC(=O)[C@H](Cc2ccccc2)NC(=O)CSC[C@@H](C(=O)NCC(N)=O)NC(=O)[C@H](CCC(=O)O)NC(=O)[C@H](Cc2c[nH]cn2)NC(=O)[C@H](Cc2ccc(O)cc2)NC(=O)[C@H](Cc2cccc3ccccc23)NC1=O [TGFb1_029] ({CH2CO}-F[1Nal]VK([CO-Meglumine])NV[4Pal]DE[Gly(NCH2CH2Ph)]V[1Nal]YHECG-NH2; thioether N-16)
- inhibition at 62 pM (recombinant human TGF-β1): 12%
- inhibition at 0.000185 µM (recombinant human TGF-β1): 16.9%
- inhibition at 0.00056 µM (recombinant human TGF-β1): 32.4%
- inhibition at 0.0017 µM (recombinant human TGF-β1): 63.7%
- inhibition at 0.005 µM (recombinant human TGF-β1): 85.8%
- inhibition at 0.015 µM (recombinant human TGF-β1): 96.8%

B1: TGFb1_026 (peptide)
peptide: {CH2CO}-F[1Nal]V[KCOmeglumine]NV[4Pal]D[KCOmeglumine][Gly(NCH2CH2Ph)]V[1Nal]YH[KCOpipzaa]CG-NH2
modifications: thioether N-16
SMILES: CC(C)[C@@H]1NC(=O)CN(CCc2ccccc2)C(=O)[C@H](CCCCNC(=O)N(C)C[C@H](O)[C@@H](O)[C@H](O)[C@H](O)CO)NC(=O)[C@H](CC(=O)O)NC(=O)[C@H](Cc2ccncc2)NC(=O)[C@H](C(C)C)NC(=O)[C@H](CC(N)=O)NC(=O)[C@H](CCCCNC(=O)N(C)C[C@H](O)[C@@H](O)[C@H](O)[C@H](O)CO)NC(=O)[C@H](C(C)C)NC(=O)[C@H](Cc2cccc3ccccc23)NC(=O)[C@H](Cc2ccccc2)NC(=O)CSC[C@@H](C(=O)NCC(N)=O)NC(=O)[C@H](CCCCNC(=O)N2CCN(CC(=O)O)CC2)NC(=O)[C@H](Cc2c[nH]cn2)NC(=O)[C@H](Cc2ccc(O)cc2)NC(=O)[C@H](Cc2cccc3ccccc23)NC1=O
- SBE reporter % inhibition, peptide 0.062 nM [1]: 6.85%
- SBE reporter % inhibition, peptide 0.185 nM [1]: 17.8%
- SBE reporter % inhibition, peptide 0.56 nM [1]: 41.4%
- SBE reporter % inhibition, peptide 1.7 nM [1]: 74.3%
- SBE reporter % inhibition, peptide 5.0 nM [1]: 93.4%
- SBE reporter % inhibition, peptide 15.0 nM [1]: 98%

B2: TGFb1_006 (peptide)
peptide: {CH2CO}-F[1Nal]VVNV[4Pal]DD[Gly(NCH2CH2Ph)]V[1Nal]YHVCG
modifications: thioether N-16; not fully specified (C-terminus)
notes: cyclic peptide; C-terminal G is a linker
- SBE reporter % inhibition, peptide 0.075 nM [2]: 2.8%
- SBE reporter % inhibition, peptide 0.75 nM [2]: 69.3%
- SBE reporter % inhibition, peptide 7.5 nM [2]: 97.1%
- SBE reporter % inhibition, peptide 75.0 nM [2]: 99.7%

B3: TGFb1_024 (peptide)
peptide: {CH2CO}-F[1Nal]V[KCOmeglumine]NV[4Pal]DE[Gly(NCH2CH2Ph)]V[1Nal]YH[KCOpipzaa]CG-NH2
modifications: thioether N-16
SMILES: CC(C)[C@@H]1NC(=O)CN(CCc2ccccc2)C(=O)[C@H](CCC(=O)O)NC(=O)[C@H](CC(=O)O)NC(=O)[C@H](Cc2ccncc2)NC(=O)[C@H](C(C)C)NC(=O)[C@H](CC(N)=O)NC(=O)[C@H](CCCCNC(=O)N(C)C[C@H](O)[C@@H](O)[C@H](O)[C@H](O)CO)NC(=O)[C@H](C(C)C)NC(=O)[C@H](Cc2cccc3ccccc23)NC(=O)[C@H](Cc2ccccc2)NC(=O)CSC[C@@H](C(=O)NCC(N)=O)NC(=O)[C@H](CCCCNC(=O)N2CCN(CC(=O)O)CC2)NC(=O)[C@H](Cc2c[nH]cn2)NC(=O)[C@H](Cc2ccc(O)cc2)NC(=O)[C@H](Cc2cccc3ccccc23)NC1=O
- SBE reporter % inhibition, peptide 0.062 nM [1]: 5.79%
- SBE reporter % inhibition, peptide 0.185 nM [1]: 16.6%
- SBE reporter % inhibition, peptide 0.56 nM [1]: 45%
- SBE reporter % inhibition, peptide 1.7 nM [1]: 80.2%
- SBE reporter % inhibition, peptide 5.0 nM [1]: 95.5%
- SBE reporter % inhibition, peptide 15.0 nM [1]: 98.9%

B4: TGFb1_023 (peptide)
peptide: {CH2CO}-F[1Nal]VVNV[4Pal]D[KCOmeglumine][Gly(NCH2CH2Ph)]V[1Nal]YH[KCOpipzaa]CG-NH2
modifications: thioether N-16
SMILES: CC(C)[C@@H]1NC(=O)CN(CCc2ccccc2)C(=O)[C@H](CCCCNC(=O)N(C)C[C@H](O)[C@@H](O)[C@H](O)[C@H](O)CO)NC(=O)[C@H](CC(=O)O)NC(=O)[C@H](Cc2ccncc2)NC(=O)[C@H](C(C)C)NC(=O)[C@H](CC(N)=O)NC(=O)[C@H](C(C)C)NC(=O)[C@H](C(C)C)NC(=O)[C@H](Cc2cccc3ccccc23)NC(=O)[C@H](Cc2ccccc2)NC(=O)CSC[C@@H](C(=O)NCC(N)=O)NC(=O)[C@H](CCCCNC(=O)N2CCN(CC(=O)O)CC2)NC(=O)[C@H](Cc2c[nH]cn2)NC(=O)[C@H](Cc2ccc(O)cc2)NC(=O)[C@H](Cc2cccc3ccccc23)NC1=O
- SBE reporter % inhibition, peptide 0.062 nM [1]: 8.58%
- SBE reporter % inhibition, peptide 0.185 nM [1]: 24.4%
- SBE reporter % inhibition, peptide 0.56 nM [1]: 49.7%
- SBE reporter % inhibition, peptide 1.7 nM [1]: 82.3%
- SBE reporter % inhibition, peptide 5.0 nM [1]: 96%
- SBE reporter % inhibition, peptide 15.0 nM [1]: 99.5%

B5: TGFb1_025 (peptide)
peptide: {CH2CO}-F[1Nal]V[KCOmeglumine]NV[4Pal]D[KCOpipzaa][Gly(NCH2CH2Ph)]V[1Nal]YH[KCOpipzaa]CG-NH2
modifications: thioether N-16
SMILES: CC(C)[C@@H]1NC(=O)CN(CCc2ccccc2)C(=O)[C@H](CCCCNC(=O)N2CCN(CC(=O)O)CC2)NC(=O)[C@H](CC(=O)O)NC(=O)[C@H](Cc2ccncc2)NC(=O)[C@H](C(C)C)NC(=O)[C@H](CC(N)=O)NC(=O)[C@H](CCCCNC(=O)N(C)C[C@H](O)[C@@H](O)[C@H](O)[C@H](O)CO)NC(=O)[C@H](C(C)C)NC(=O)[C@H](Cc2cccc3ccccc23)NC(=O)[C@H](Cc2ccccc2)NC(=O)CSC[C@@H](C(=O)NCC(N)=O)NC(=O)[C@H](CCCCNC(=O)N2CCN(CC(=O)O)CC2)NC(=O)[C@H](Cc2c[nH]cn2)NC(=O)[C@H](Cc2ccc(O)cc2)NC(=O)[C@H](Cc2cccc3ccccc23)NC1=O
- SBE reporter % inhibition, peptide 0.062 nM [1]: 4.81%
- SBE reporter % inhibition, peptide 0.185 nM [1]: 18.4%
- SBE reporter % inhibition, peptide 0.56 nM [1]: 43.3%
- SBE reporter % inhibition, peptide 1.7 nM [1]: 77.5%
- SBE reporter % inhibition, peptide 5.0 nM [1]: 94.7%
- SBE reporter % inhibition, peptide 15.0 nM [1]: 99.4%
